Drawing on US20040253631, this text covers activity for 2 substances.

Data set [1] concerns the target T1, Lambda integrase (Int) (bacteriophage lambda) (UniProt P03700).
T1 sequence: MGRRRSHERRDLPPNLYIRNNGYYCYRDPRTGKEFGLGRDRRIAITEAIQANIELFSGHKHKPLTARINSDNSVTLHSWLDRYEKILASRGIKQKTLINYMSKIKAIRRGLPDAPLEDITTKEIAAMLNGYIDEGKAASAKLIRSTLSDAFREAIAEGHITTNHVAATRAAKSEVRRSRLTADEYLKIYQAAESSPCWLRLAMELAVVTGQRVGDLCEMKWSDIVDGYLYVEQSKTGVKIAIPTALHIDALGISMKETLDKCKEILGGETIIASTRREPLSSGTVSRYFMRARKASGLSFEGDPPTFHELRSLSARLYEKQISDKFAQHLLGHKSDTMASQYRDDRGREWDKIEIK
As to the kind of experiment: cell_activity. The note with it: Xis, IHF.

For data set [2], the target named is Cre recombinase (bacteriophage P1) (UniProt P06956). Description: cell_activity. As to conditions: background 140 without Cre; 37 C; 19/24 correct product.
Chain of UniProt P06956 (P06956 whole entry): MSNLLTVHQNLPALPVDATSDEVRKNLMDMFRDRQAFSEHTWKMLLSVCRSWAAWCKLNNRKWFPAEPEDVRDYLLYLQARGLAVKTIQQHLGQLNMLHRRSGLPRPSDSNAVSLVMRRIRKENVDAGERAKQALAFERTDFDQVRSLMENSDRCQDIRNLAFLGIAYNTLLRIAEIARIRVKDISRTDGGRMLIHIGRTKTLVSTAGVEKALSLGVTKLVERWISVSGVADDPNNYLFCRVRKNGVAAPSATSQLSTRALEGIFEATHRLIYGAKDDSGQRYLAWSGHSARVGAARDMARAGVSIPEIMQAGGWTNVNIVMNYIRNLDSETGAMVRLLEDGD

On to attL wt, for which the activity was 4 colonies in data set [1] (partner attR'1 (N5), Cre, background 1); 0 colonies in data set [1] (partner attR'2 (N6), Cre); 147 colonies in data set [1] (partner attR'wt, Cre (loxP for second recombination), background 1).
As to loxP / loxP 511 plasmids, in data set [2], the activity came out at 760 colonies.
